Laboratory results: US20130196377A1 (SAMSUNG ELECTRONICS, published 2013)

Biological target: T1, human EGFR extracellular domain (Prospec) (human, UniProt P00533 25-645)
T1 construct: extracellular domain; Bought protein; also called epidermal growth factor receptor
Assay: SPR (Biacore T100); antibody captured on anti-human IgG CM5 chip, EGFR extracellular domain 6.25-100 nM as analyte; 1:1 Langmuir model
Excerpt: 1× HBS-EP (GE healthcare) was used as a running buffer and a dilution buffer. About 5,000 RU (response unit) of an Anti-human IgG antibody (Jackson Immuno Research) were immobilized on a surface of a CM5 chip (GE healthcare) by standard amine-coupling. […] A contact time (association phase) was 180 seconds, and a separation time (washing with running buffer) was 600 seconds. After each binding cycle was terminated, Glycine-HCl pH 2.0 (GE healthcare) as a regeneration solution was flown onto the chip at a flow rate of 50 μL/min for 1 minute to remove the combined antigen and antibody from the chip. A sensorgram was obtained therefrom such that a fitting process was performed in BIA evaluation software by using a 1:1 Langmuir binding model for the EGFR case and by using a bivalent analyte model for the VEGF case.

Kd: 4.91 nM
B1: (E2)2, monospecific antibody recognizing the EGFR (antibody, human IgG1, V domains shown)
VL: DIQMTQSPTSLSASVGDRVTITCRASQWIGNLLDWYQQKPGEAPKLLIYYASFLQSGVPSRFSGGGFGTDFTLTISSLQPEDFATYYCQQANPAPLTFGQGTKVEIKR
notes: Homodimer of E2-hinge-Fc chains, inferred from the label (E2)2
